In US20110190385A1 (UNIVERSITY OF CENTRAL FLORIDA RESEARCH FOUNDATION, published 2011):

Molecular target: HIV-1 gp41 (Env of HIV-1 BaL) (HIV-1 BaL)
Assay: cell-based or functional assay

B1: RC-101 (single lysine congener of retrocyclin) (peptide)
peptide: cyclo(RCICGRGICRCICGKGIC)
modifications: disulfide (positions not given here); also: three disulfide bridges, pairing not given here
B1 was tested, and the “IC50 of inhibition of HIV-1 BaL entry in TZM-bl cells (luciferase)” value was 2 µg/mL.
